Measured values taken from a protein production outcome set (Wang et al. 2014).

experiment: label from the status in PepcDB records

Sequence | protein production
MRFRFGVVVPPAVAGARPELLVVGSRPELGRWEPRGAVRLRPAGTAAGDGALALQEPGLWLGEVELAAEEAAQDGAEPGRVDTFWYKFLKREPGGELSWEGNGPHHDRCCTYNENNLVDGVYCLPIGHWIEATGHTNEMKHTTDFYFNIAGHQAMHYSRILPNIWLGSCPRQVEHVTIKLKHELGITAVMNFQTEWDIVQNSSGCNRYPEPMTPDTMIKLYREEGLAYIWMPTPDMSTEGRVQMLPQAVCLLHALLEKGHIVYVHCNAGVGRSTAAVCGWLQYVMGWNLRKVQYFLMAKRPAVYIDEEALARAQEDFFQKFGKVRSSVCSL | failed
MRFRYAMVCSSNQNRSMEAHALLKRQGLDVASYGTGSHVKLPGPSLREPNVYDFGTPYKQMFDELRRKDPELYKRNGILQMIKRNLSVKLAPQRWQDNAGDGVFDVVMTFEEKVFDSVLEDLNNREQSLTKTILVMNLEVKDNHEEAAIGGRLALELCQEIEGNETWEDTIDDIVAGFEKQHRRKLVYSISFY | failed
MRFSREALLELEASRLAPYAQKARDTRGRAHPEPESLYRTPYQKDRDRILHTTAFRRLEYKTQVLPGWAGDYYRTRLTHTLEVAQVSRSIARALGLNEDLTEAIALSHDLGHPPFGHTGEHVLNALMQDHGGFEHNAQALRILTHLEVRYPGFRGLNLTYEVLEGIATHEAAYSPGFKPLYEGQGTLEAQVVDLSDAIAYAAHDLDDGLRAGLLHPEELKEVELLQALALEEGLDLLRLPELDRRVLVRQLLGYFITAAIEATHRRVEEAGVQSAEAVRRHPSRLAALGEEAEKALKALKAFLMERFYRHPEVLRERRKAEAVLEGLFAAYTRYPELLPREVQAKIPEEGLERAVCDYIAGMTDRFALEAYRRLSP | not failed
MRGETELKQERSIALPLAISIIAISFAAVFVKMSSAPSSILSMYRLWIIVLLMLPIVWKKREEFSKIQIKDWGFLIGSGFFLALHFLLWFESLKHTTVASSTIILALQPIVSLVGGFFLFKERTTYSAIATMGIAILGVVCIGWGDLGLSEQAIYGDILSFLSVIAVVGYLFIGQTTVKKVSHWIYSFTVFAFAGIFMGIYNIVLQVPFTGYTKWDWTVFLLLAVVPTVSHVINNWLLNYVNATTISMSILGEPVGASILAFFLLGERLNAMQMIGSILVLFGVSVFLLQQQKRTAKNVVNEPVYTQEL | failed
MRGGGILDYIGYFLVAIIVIFVVVKLLEWPIKMLVKLIINGVIGAIMLFALNIFGKYIGISIGINIVTALIAGIFGIPGVIFLVILKFIM | failed
MRGSVAALLLAAGRSIRMGRCKQLLPLGNTTVLGRCLDTLRRGGVGEIAVVVSADGEQVARAAAGHGVRVVVNPDREGDMASSVRAGRDAFGSAVGGVIVSLCDQPLVAAGTVARLRDRHATEPGRIIIPTHGGRRGHPLLFPLPVLAELEDGLTLRDLVVCDPARVCCVAVADPGILIDMDTPEDYRHVCRLMAPQEGLSLRLEHHHHHH | failed
MRGVFLDKDKIPYDLVTKKLNEWYTSIKNDQVEQAEIIKTEVEKELLNMEENQDALLYYQLLEFRHEIMLSYMKSKEIEDLNNAYETIKEIEKQGQLTGMLEYYFYFFKGMYEFRRKELISAISAYRIAESKLSEVEDEIEKAEFFFKVSYVYYYMKQTYFSMNYANRALKIFREYEEYAVQTVRCQFIVAGNLIDSLEYERALEQFLKSLEISKESNIEHLIAMSHMNIGICYDELKEYKKASQHLILALEIFEKSKHSFLTKTLFTLTYVEAKQQNYNVALIYFRKGRFIADKSDDKEYSAKFKILEGLFFSDGETQLIKNAFSYLASRKMFADVENFSIEVADYFHEQGNLMLSNEYYRMSIEARRKIKKGEIIDENQPDSIGSSDFK | failed
MRGVSELEVGKSNLPAESELELGLGLSLGGGAWKERGRILTAKDFPSVGSKRSAESSSHQGASPPRSSQVVGWPPIGLHRMNSLVNNQAMKAARAEEGDGEKKVVKNDELKDVSMKVNPKVQGLGFVKVNMDGVGIGRKVDMRAHSSYENLAQTLEEMFFGMTGTTCREKVKPLRLLDGSSDFVLTYEDKEGDWMLVGDVPWRMFINSVKRLRIMGTSEASGLAPRRQEQKDRQRNNPV | failed
MRHLGLRNVISKLPAKINAAREFATSALVLIVFFGLLLILGRQFFRDSVVLEPISVPLHLEESGLNGGVAAQWLIDSIRTIQRNAASTKETKAIQATPKQINIEMPGVGFSLATIEQIIREALALPSPFIKGEIIKLGDSYQIRLRLPGAPYIHIEQPLGDKDVEKLIAKSAEKILLLKDPYIVAVDYYRKAEYKKAIEVINNMQPGADRLQSAYNELLLAAIATKQLEHEKASLHLKKADQLAPNLGVVKLNQAIQHALKKDPSTALSKYKEAKQLNLELQDDAFHSQILTELGRELVTDDSAEEKLALFRKAIDLAPENASAIIRLAEVLAHRQRPEENNEMLKLYEAAIGLVPNKPKYHFQYGKTLWEMGNKDKGCVQVKKAVELKPAMRVLANKYQCSK | failed
MRHTLPIAPQFYVTAPQSCPYLEGRLERKLFTALQGEHAQKLNDTLSKQGFRRSQNVLYRPSCAECSACLSARIRVADFEPTRTQRRVMKRNADLRRNATSPWATEDQYALFRRYLDDRHADGGMADMDIFEFAAMIEETPIRSRVIEYSRPGDTPSNRPLSAVCLTDIFDDGLSMVYSFYDPDLAGRSLGAYVILDHIEIAREAGLPYVYLGYWVPGSRKMGYKATYSALEIYKGGRWQAIGQPSDHRAELHPLSVDPIAEQVARISLPEARSGDRSRDLEHHHHHH | not failed
MRIDIVTIFPACLDPLRQSLPGKAIESGLVDLNVHDLRRWTHDVHHSVDDAPYGGGPGMVMKAPVWGEALDEICSSETLLIVPTPAGVLFTQATAQRWTTESHLVFACGRYEGIDQRVVQDAARRMRVEEVSIGDYVLPGGESAAVVMVEAVLRLLAGVLGNPASHQDDSHSTGLDGLLEGPSYTRPASWRGLDVPEVLLSGDHARIAAWRREVSLQRTRERRPDLSHPD | failed
MRIFFLIFLLAYVGGNVYIFIRTLQMLSGFSLAMKILLSVIYWLVAFSLVIAMLTRHIDMPVILSKSMFHIGSVWLVFTLYMIFALLIADVTKIFVPSLNHGFYYALGATCCLLLYGYYNYRHPQVNKIDVSLDKPIEGNGINIVAVSDVHLGYGTGKAMLKEYVDMINAQHPDLILIGGDLIDNSLTPLYKENMAEELAQLKAPLGIYMVPGNHEYISGIDESVRFLKDTPIQLLRDSVVTLPNGVQIIGRDDRSNRSRHSLPTLLKQADRSKPIILLDHQPYNLAKTDSLGIDLQFSGHTHHGQIWPISWVTDRIYEQSHGYRKWSQSHIYVSSGLSLWGPPFRIGTNSDMAVFHLNQMAK | not failed
MRIGHGFDVHKFGENGSGPLIIGGVRIPYEKGLLAHSDGDVALHAATDALLGAAALGDIGKLFPDTDPAFKGADSRGLLREAYRRILAKGYKLGNLDITIIAQAPKMAPHIPQMRVNLAEDLQCHMDDINVKATTTEQLGFTGRGEGIACEAVVLLVNVEQG | not failed
MRIGVIGTGTIATAVVHGIAGDGHAITVSERSAANAQALAAAYPNVRVASNQVVVEECDILTLGLMAEQAPEILGPLPFRADQQVITLMAGATLEQVAQMVAPARAAAIMMPFPSIAQGGSPIMMQGDADLVAALFGARNRIFAVRDAAEMAAYLCAQAVLSPVARMVDDAAGWLATRVSDPVQGEAFLRALVASSLADTDSASLIEALNTPGGYNQRLRLHMEGAGMGDSLRAGLDALETGA | failed
MRIIIVGGGKVGYQVARQCAAWGCDVVLVENDRQKGEKIKGELGLQVVIGDGTKAHFLKKAGAEEADIVVAVTDDDQDNLVICQLAERQFKAKRTLALVNNPGNEKLFRWLGVNQVIGPASLILGLIQERVDMDSTAAMWMQGIKDLKMIQFKLGPEAPVLGRKIKTIPFPNECILVTVVRENTAIVPCGNTVLEEGDLVFALANPAVQAELERVLTGKNDN | failed
MRILAFPYTHTLSHLSRVLAVALELRRMGHEVVFAGESAKVSFVSQQGFDVVPIHEPDPEMLFGNIRSGKLRFVEDAELLQMLTADIEVIRSLKPDLVLSDGRFSAPLSTHLTNVRHAAIVNASSTEYRALPYVPFFDWMPPWLISRDAMIWKALVRLNLFLEMKLFDNVMKVFKRLSRELNTNRTVTATNCLTGKDITLLADIPEYFPSRNLPASYHYVGPLTWKSVLAPPAWWPLDIPSSPLVYVTMGTTGVSEFFSKLGPSLSTSFFSSIVTTGGQSSELKPMPGKVYVESYLDGDLVMERSDVVICHGGNGTIYQALSHGKPVIGIPTIPDQKFNMRRVEAMGFGKSLDLKQFLEKPSLLADTVKQVLSDHSFRNSAQKIQAVLKSYNAATTSAKILIDSILLEHHHHHH | failed
MRILILGMGGTIASVKGERGYESALSVSKILKLAGISSEAKIEARDLMNVDSTLIQPSDWERLAKEIEKEVWEYDGIVITHGTDTMAYSASMLSFMLRNPPIPIVLTGSMLPITEKNSDAPFNLRTALEFVKLGIRGIYIAFNGKVMLGVRASKIRSMGFDAFESINYPNVAEIKDDKLRILHIPDFYGDEFFSDIKYEPKVLVIKLIPGLSGDIVREALRLGYKGIILEGYGVGGIPYRGTDLFEVVSSISKRIPVVLTTQAIYDGVDLQRYKVGRIALEAGVIPAGDMTKEATITKLMWILGHTKNIEEVKQLMGKNITGELTRVS | not failed
MRILLVSRPHPEGARDPFTSLLPTGLGYLNAVLRENGFTSSLANLSTASWRQVEELLRRERPAILGISVFTHNRFESLRLAALAKKVDPTCLTIFGGPHATHAFESILVKYREVDGVILGEGEETFLDLARAVERGDRSLTGIVGLAYRKGAKVHSVKRPPVADLDVLPLPALHMNDAWGCDVRRQLEFIITSRGCPAACRFCSSPRFWGKSLRFRSPRAMVDEIRAIRDRYGLIYFSLRDDTFTVRKDRVIDFCRLLLEEKVHILWNCQSRVNAVDEEMLIWMRRAGCECVQYGVESGSEKILAYLGKQITPEQVRRAAKATRRAGISLSIYLISGVPGETDDDLQATLTLISNILPHDGHVAPLAYYPGTALFDEAVREGRVGADLFERERGAALYVRRDPFVARSMETLLRALTRVERKARFGPADFTAQREFLGYCHGTNLGQGEWLEAKGDIGKAEALYREIVERQPENPWGWLALGGLHGSRGDVTRAGKAFERAISLVPAHVPAYLALGDLRLEEGDQRGAKQLYETAKRLNPRDTDVGERLRMVVAERGTKKGDT | failed
MRINPGEITKVLEEKIKSFEEKIDLEDTGKVIQVGDGIARAYGLNKVMVSELVEFVETGVKGVAFNLEEDNVGIIILGEYKDIKEGHTVRRLKRIIEVPVGEELLGRVVNPLGEPLDGKGPINAKNFRPIEIKAPGVIYRKPVDTPLQTGIKAIDSMIPIGRGQRELIIGDRQTGKTAIAIDTIINQKGQGVYCIYVAIGQKKSAIARIIDKLRQYGAMEYTTVVVASASDPASLQYIAPYAGCAMGEYFAYSGRDALVVYDDLSKHAVAYRQLSLLMRRPPGREAYPGDIFYLHSRLLERAVRLNDKLGGGSLTALPIVETQANDISAYIPTNVISITDGQIYLEPGLFYAGQRPAINVGLSVSRVGGSAQIKAMKQVAGMLRIDLAQYRELETFAQFATELDPATRAQIIRGQRLMELLKQEQYSPMPVEEQVVVLFAGVRGYLDDLPVEEVRRFEKEFLRFMHEKHQDILDDIKTKKELTSETEEKLKKAIEEFKTTFRV | not failed
MRISAWLLCSLSFIAPLSWAESSPADIAAQKQQQILFFNHDDRDIVPDTAVWPWQAIGQLETASGNLCTATLISPHLALTAGHCVVTPPKGEIDNPVALRFLATENGWRYETTEIEALANKTLAKKLKADGEGWIVPPSAAPLDYALIRLKQTPPGIRPLPLWQGSRQELMQALKDNGQRVTQAGYPEDHQETLYRHQDCLITGWVHAAVMAHQCDTLPGDSGSPLMLNSAAGWVLMGIQSSAPDASERDRADNRAVSVTAIRQQLETLAKLSSPKPGSPKLSPK | failed
